# In PMC8780415:
# Assays:
# Assay in all cases: flow cytometry on cells
# [1] = biological target: NTCP-GFP fusion protein (sodium taurocholate cotransporting polypeptide) (UniProt Q14973)
# [2] = biological target: SR-B1-GFP fusion protein (scavenger receptor class B type 1) (UniProt Q8WTV0)
# [3] = biological target: Biotinylated Myr47 (myristoylated pre-S1 peptide); details: HEK293T cells transiently transfected; GFP+ gate; 10,000 cells; triplicate assays; mean and standard error; Myr47 binding examined at 4 °C; parent: est. 13; read off a plot
# Sequence of UniProt Q8WTV0 (Q8WTV0 whole entry, the tested form may be a part): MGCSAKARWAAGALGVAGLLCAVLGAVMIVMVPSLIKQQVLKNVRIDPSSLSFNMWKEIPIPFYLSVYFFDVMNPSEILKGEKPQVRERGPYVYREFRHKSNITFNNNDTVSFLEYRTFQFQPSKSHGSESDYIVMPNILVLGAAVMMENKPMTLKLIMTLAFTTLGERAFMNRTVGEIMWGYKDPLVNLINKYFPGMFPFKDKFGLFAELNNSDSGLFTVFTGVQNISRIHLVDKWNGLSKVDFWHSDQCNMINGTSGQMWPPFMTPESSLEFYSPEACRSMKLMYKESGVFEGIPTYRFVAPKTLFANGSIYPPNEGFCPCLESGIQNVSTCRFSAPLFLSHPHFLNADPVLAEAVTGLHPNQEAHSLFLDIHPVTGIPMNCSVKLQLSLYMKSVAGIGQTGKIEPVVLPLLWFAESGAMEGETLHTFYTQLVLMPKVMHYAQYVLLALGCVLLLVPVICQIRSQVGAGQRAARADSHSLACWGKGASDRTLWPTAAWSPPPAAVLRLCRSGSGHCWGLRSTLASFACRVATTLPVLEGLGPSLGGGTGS
# Sequence of UniProt Q14973 (Q14973 whole entry, the tested form may be a part): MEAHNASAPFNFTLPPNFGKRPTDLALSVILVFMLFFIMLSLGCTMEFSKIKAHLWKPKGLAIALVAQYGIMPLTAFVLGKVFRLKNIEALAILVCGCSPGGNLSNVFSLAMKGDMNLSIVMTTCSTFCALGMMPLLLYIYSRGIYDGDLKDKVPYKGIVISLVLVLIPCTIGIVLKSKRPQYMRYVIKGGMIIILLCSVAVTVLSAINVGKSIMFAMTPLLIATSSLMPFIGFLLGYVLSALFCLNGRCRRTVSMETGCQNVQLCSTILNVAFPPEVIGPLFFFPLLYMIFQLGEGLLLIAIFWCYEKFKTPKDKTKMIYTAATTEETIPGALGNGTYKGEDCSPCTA
Substance,fold binding over GFP control cells [1] [fold],fold binding over GFP control cells [2] [fold],response [3] [FI × 10^3]
Biotinylated Myr47 (myristoylated pre-S1 peptide),3.4,2.8,–
SR-B1-GFP fusion protein (scavenger receptor class B type 1) (from UniProt Q8WTV0) K151A,–,–,10
SR-B1-GFP fusion protein (scavenger receptor class B type 1) (from UniProt Q8WTV0) K156A,–,–,5.8
SR-B1-GFP fusion protein (scavenger receptor class B type 1) (from UniProt Q8WTV0) M441A; L448A; L455A,–,–,10
SR-B1-GFP fusion protein (scavenger receptor class B type 1) (from UniProt Q8WTV0) S112F,–,–,5.3
SR-B1-GFP fusion protein (scavenger receptor class B type 1) (from UniProt Q8WTV0) T175A,–,–,5.7
"Yeast-derived nanoparticles containing L protein (bio-nanocapsules, BNCs)",–,9.2,–
